# Assay results: patent US20230303649A1 (published 2023)
# Residue numbers refer to the chain shown, from its start.
# B1: SEQ ID NO 10 (ligand)
# chain: APTSSSTKKTQLQLEHLLLDLQMILNGISNHKNPRLARMLTFKFYMPEKATELKHLQCLEEELKPLEEALRLAPSKNFHLRPRDLISDVNVIVLELKGSETTFMCEYADETATIVEFLNRWITFSTSIISTLT
# B2: SEQ ID NO 11 (ligand)
# chain: APTSSSTKKTQLQLEHLRLDLEMILNGINNYKNPKLTRMLTFKFYMPKKATELKHLQCLEEELKPLEEVLNLAQSKNFHLRPRDLISNINVIVLELKGSETTFMCEYADETATIVEFLNRWITFSTSIISTLT
# B3: SEQ ID NO 33 (ligand)
# chain: B2 chain with R18L, E22Q, Q74P, N88D, T126Q
# B4: SEQ ID NO 25 (ligand)
# chain: B1 chain with S29N, A37T, E48K, D88N, V89I
# B5: SEQ ID NO 30 (ligand)
# chain: B1 chain with S29N, R35K, A37T, E48K, R71N, V89I, T126Q
# B6: SEQ ID NO 29 (ligand)
# chain: B2 chain with R18L, E22Q, Y31H, K35R, Q74P
# B7: SEQ ID NO 39 (ligand)
# chain: B2 chain with R18L, E22Q, N71R, N88D, T126Q
# B8: SEQ ID NO 24 (ligand)
# chain: B2 chain with R18L, E22Q, Y31H, N71R, N88D
# B9: SEQ ID NO 28 (ligand)
# chain: B1 chain with S29N, A37T, E48K, A69V, R71N, V89I, T126Q
# B10: SEQ ID NO 27 (ligand)
# chain: B1 chain with S29N, A37T, E48K, A69V, D88N, V89I
# B11: SEQ ID NO 13 (ligand)
# chain: B1 chain with S29N, A37T, E48K, V89I, T126Q
# B12: SEQ ID NO 36 (ligand)
# chain: B2 chain with R18L, E22Q, Y31H, V69A, N88D, T126Q
# B13: SEQ ID NO 32 (ligand)
# chain: B2 chain with R18L, E22Q, V69A, N88D, T126Q
# B14: SEQ ID NO 9 (ligand)
# chain: B1 chain with S29N, A37T, E48K, D88N, V89I, T126Q
# B15: SEQ ID NO 34 (ligand)
# chain: B2 chain with R18L, E22Q, Y31H, N88D, T126Q
# B16: SEQ ID NO 26 (ligand)
# chain: B1 chain with S29N, A37T, E48K, A69V, V89I, T126Q
# B17: SEQ ID NO 15 (ligand)
# chain: B1 chain with S29N, A37T, E48K, A69V, D88N, V89I, T126Q
# B18: SEQ ID NO 21 (ligand)
# chain: B2 chain with R18L, E22Q, Y31H, V69A, Q74P, T126Q
# B19: SEQ ID NO 12 (ligand)
# chain: B2 chain with L80F, R81D, L85V, I86V, N88D, I92F
# B20: SEQ ID NO 31 (ligand)
# chain: B2 chain with R18L, E22Q, V69A, Q74P, N88D, T126Q
# B21: SEQ ID NO 20 (ligand)
# chain: B1 chain with S29N, R35K, A37T, E48K, D88N, V89I, T126Q
# B22: SEQ ID NO 18 (ligand)
# chain: B2 chain with R18L, E22Q, L80F, R81D, L85V, I86V, I92F, T126Q
# B23: SEQ ID NO 35 (ligand)
# chain: B2 chain with R18L, E22Q, Y31H, Q74P, N88D, T126Q
# B24: SEQ ID NO 16 (ligand)
# chain: B2 chain with L80F, R81D, L85V, I86V, I92F, T126Q
# B25: SEQ ID NO 17 (ligand)
# chain: B2 chain with E22Q, L80F, R81D, L85V, I86V, I92F
# B26: SEQ ID NO 23 (ligand)
# chain: B2 chain with R18L, E22Q, Y31H, N71R, N88D, T126Q
# B27: SEQ ID NO 37 (ligand)
# chain: B1 chain with S29N, R35K, A37T, E48K, V89I, T126Q
# B28: SEQ ID NO 14 (ligand)
# chain: B2 chain with R18L, E22Q, Y31H, K35R, Q74P, T126Q
# B29: SEQ ID NO 38 (ligand)
# chain: B1 chain with S29N, H31Y, R35K, A37T, E48K, V89I, T126Q
# Target: T1, IL-2R on human primary T cells (human, UniProt P01589 22-272; P14784 27-551; P31785 23-369)
# T1 sequence (looked up) 1: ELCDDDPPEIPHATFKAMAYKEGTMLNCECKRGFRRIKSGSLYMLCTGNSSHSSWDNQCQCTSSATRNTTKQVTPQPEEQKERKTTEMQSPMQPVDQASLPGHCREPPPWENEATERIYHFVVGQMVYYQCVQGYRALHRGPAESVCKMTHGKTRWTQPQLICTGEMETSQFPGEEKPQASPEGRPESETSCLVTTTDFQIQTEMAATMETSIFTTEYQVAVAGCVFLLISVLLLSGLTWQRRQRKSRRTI
# T1 sequence (looked up) 2: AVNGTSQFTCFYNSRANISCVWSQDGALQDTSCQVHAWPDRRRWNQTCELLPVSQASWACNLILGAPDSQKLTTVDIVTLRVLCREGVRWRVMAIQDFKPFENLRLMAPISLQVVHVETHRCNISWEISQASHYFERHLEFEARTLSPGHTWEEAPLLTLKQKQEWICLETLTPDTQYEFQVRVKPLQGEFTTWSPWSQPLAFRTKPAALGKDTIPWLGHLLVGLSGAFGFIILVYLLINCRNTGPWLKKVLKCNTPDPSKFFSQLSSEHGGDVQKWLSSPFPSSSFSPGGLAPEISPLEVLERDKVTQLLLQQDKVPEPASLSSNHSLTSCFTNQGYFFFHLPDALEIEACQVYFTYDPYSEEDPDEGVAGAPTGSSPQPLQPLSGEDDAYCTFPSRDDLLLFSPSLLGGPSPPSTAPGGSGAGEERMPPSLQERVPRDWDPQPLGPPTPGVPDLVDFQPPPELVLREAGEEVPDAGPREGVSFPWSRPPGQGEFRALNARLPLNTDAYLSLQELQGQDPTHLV
# T1 sequence (looked up) 3: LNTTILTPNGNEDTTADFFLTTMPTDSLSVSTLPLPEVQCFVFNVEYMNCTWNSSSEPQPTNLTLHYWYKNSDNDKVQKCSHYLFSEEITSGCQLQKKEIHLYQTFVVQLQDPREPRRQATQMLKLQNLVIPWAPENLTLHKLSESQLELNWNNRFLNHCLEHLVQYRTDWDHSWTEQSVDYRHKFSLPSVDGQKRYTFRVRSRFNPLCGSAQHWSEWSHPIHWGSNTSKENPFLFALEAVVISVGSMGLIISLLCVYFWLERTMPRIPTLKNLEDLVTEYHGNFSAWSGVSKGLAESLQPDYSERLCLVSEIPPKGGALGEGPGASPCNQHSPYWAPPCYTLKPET
# Experiment: cell-based or functional assay
Binder,"CD8 EC50 (nM), STAT5 phosphorylation [nM]","Treg EC50 (nM), STAT5 phosphorylation [nM]","CD4 conv EC50 (nM), STAT5 phosphorylation [nM]","CD8 naïve EC50 (nM), STAT5 phosphorylation [nM]"
B1,650,2.55,–,–
B2,650,3.96,–,–
B3,1000,2.53,4000,1000
B4,10000,0.43,2290,10000
B5,10000,10.7,7000,10000
B6,10000,9.32,2290,10000
B7,10000,91.9,5500,10000
B8,10000,18.3,4000,10000
B9,4000,1.02,1000,4000
B10,10000,5.94,4000,10000
B11,8650,0.65,4160,8410
B12,10000,11.7,4000,10000
B13,10000,94.9,7000,10000
B14,589,0.05,2.14,822
B15,1000,2.44,1000,1000
B16,4270,0.67,2640,4270
B17,28.4,0.01,2.52,29.8
B18,151,0.07,4.81,204
B19,650,200,–,–
B20,10000,17,7000,10000
B21,227,0.03,1.2,312
B22,23.5,0.08,15.9,21.1
B23,10000,15.7,7000,10000
B24,1.68,0.03,1.31,1.81
B25,10000,1000,1000,10000
B26,1820,0.49,1000,1880
B27,10000,1.11,5500,10000
B28,372,0.29,29.1,444
B29,10000,0.4,8880,10000
